Results as given in patent US20170307628A1.

Target: recombinant human IL-17A (human) (UniProt Q16552)
Test: cell-based or functional assay

Chain of recombinant human IL-17A (human) (Q16552 20-155 limits assumed): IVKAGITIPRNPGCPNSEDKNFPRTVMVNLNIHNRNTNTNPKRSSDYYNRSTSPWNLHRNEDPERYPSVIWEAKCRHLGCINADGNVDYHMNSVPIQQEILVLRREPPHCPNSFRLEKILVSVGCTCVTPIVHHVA

- inhibition of IL-17A induced IL-6 production in NHDF cells, IC50: 1 nM
Substance: human IL-17A receptor-Fc chimera (from UniProt Q96F46 33-320) (Fc fusion)
